Experimental data: patent US20190359719A1 (published 2019)
Residue numbers refer to the chain shown, from its start.

T1: recombinant c-Met extracellular domain (R&D Systems cat#358-MT-100/CF) (UniProt P08581 25-932)
T1 chain: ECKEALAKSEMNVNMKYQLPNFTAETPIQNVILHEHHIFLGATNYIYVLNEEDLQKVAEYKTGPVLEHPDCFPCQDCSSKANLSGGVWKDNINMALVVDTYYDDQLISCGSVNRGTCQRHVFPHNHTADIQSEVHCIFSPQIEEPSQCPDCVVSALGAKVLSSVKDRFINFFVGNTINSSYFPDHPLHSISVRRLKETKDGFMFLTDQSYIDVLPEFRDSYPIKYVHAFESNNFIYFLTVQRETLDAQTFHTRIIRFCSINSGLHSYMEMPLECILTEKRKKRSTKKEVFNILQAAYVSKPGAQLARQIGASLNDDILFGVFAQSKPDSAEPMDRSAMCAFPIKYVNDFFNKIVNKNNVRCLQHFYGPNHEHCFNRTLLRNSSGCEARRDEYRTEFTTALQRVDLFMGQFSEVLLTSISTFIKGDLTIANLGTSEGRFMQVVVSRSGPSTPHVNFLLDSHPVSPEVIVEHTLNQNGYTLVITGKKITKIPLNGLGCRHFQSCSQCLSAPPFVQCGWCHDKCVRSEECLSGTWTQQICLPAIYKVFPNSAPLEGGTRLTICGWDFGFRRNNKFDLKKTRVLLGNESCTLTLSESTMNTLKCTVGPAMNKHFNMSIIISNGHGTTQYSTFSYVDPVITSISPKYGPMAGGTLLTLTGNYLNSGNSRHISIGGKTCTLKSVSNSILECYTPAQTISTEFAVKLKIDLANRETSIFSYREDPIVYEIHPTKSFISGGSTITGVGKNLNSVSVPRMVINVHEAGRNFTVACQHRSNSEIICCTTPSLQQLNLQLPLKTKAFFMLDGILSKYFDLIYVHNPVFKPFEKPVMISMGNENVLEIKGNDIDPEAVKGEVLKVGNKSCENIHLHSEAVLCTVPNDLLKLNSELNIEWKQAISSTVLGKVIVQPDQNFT

B1: A1 anti-c-Met antibody in IgG format (antibody, V domains shown)
VH: QVQLQESGPGLVKPSQTLSLTCTVSGGSISSGGYYWSWIRQHPGKGLEWIGEINHSGSTNYNPSLKSRVTISVDTSKNQFSLKLSSVTAADTAVYYCARGRDGYDFDPWGQGTLVTVSS
VL: LPVLTQPASVSGSPGQSITISCTGTSSDVGGYNYVSWYQQHPGKAPKLMIYDVSDRPSGVSTRFSGSKSGNTASLTISGLQAEDEADYYCSSYRSSSALVVFGGGTKLTVL
B2: E1 anti-c-Met antibody in IgG format (antibody, V domains shown)
VH: QVQLVQSGAEVKKPGASVKVSCKTSGYTFSGDYMHWVRQAPGQGLEWMGWINPNSGGTNYAQKFQGRVTMTRDTSISTAYMELSRLRSDDTAVYYCAREPGRDYYYYDGMDVWGQGTTVTVSS
VL: QSVVTQPPSVSGAPGQRVTISCTGSSSNIGAGYDVHWYQQLPGTVPKLLIYGNSNRPSGVPDRFSGSKSGTSASLAITGLQAEDEADYYCQSYDSSLSAYVFGTGTKVTVL
B3: F3 anti-c-Met antibody in IgG format (antibody, V domains shown)
VH: QVQLVESGPGLVKPSGTLSLTCAVSGGSISSSNWWSWVRQPPGKGLEWIGEIYHSGSTNYNPSLKSRVTISVDKSKNQFSLKLSSVTAADTAVYYCARSAYGDYFLDYWGQGTLVTVSS
VL: B1 VL with L1Q, P2S, M49L, S54D, D55S, T62N, Y93F, R94T, A98T, L108V
B4: B12 anti-c-Met antibody in IgG format (antibody, V domains shown)
VH: QVQLVESGAEVKKPGASVKVSCKASGYTFTGYYMHWVRQAPGQGLEWMGWINPNSGNTGYAQKFQGRVTMTRNTSISTAYMELSSLRSEDTAVYYCARRGTTVSFDYWGQGTTVTVSS
VL: QAVLTQPPSVSGSPGQSITISCTGTSSDVGTFNLVSWYQQHPGKAPKLIIYEVSKRPSDVSPRYSGSKSGTTASLTISVLQTEDEADYYCCSYTTSSSYVFGIGTKVTVL
B5: A8 (antibody, V domains shown)
VH: QITLKESGAEVKKPGSSVKVSCKASGGTFSSYGISWVRQAPGQGLEWMGGIIPMFGTANYAQKFQGRVTITADESTSTAYMELSSLRSEDTAVYYCARDEVAPDYYGSGPSYGMDVWGQGTMVTVSS
VL: SYELMQPASVSGSPGQSITISCTGTSSDVGGYDHVSWYQQHPGKAPKLMIYAVRNRPSGVPDRFSGSKSGNTASLTISGLQAEDEADYYCSSYTSSLTYVFGTGTKVTVL
B6: H8 anti-c-Met antibody in IgG format (antibody, V domains shown)
VH: EVQLVQSGAEVKKPGASVKVSCKASGYTFSSYYMHWVRQAPGQGLEWMGWINPNSGNTGYAQKFQGRVTMTRNTSISTAYMELSSLRSEDTAVYYCARRGTTVSFDYWGQGTLVTVS
VL: QLVLTQSPSVSVAPGQRVTISCSGSNSNIGNNYVSWYHHLPGTAPKLLIYDNNKRPSGIPDRFSGSKSGTSATLGITGLQPGDEAHYYCGTWDSTLSAGVFGGGTKLTVL
B7: D6 anti-c-Met antibody in IgG format (antibody, V domains shown)
VH: QVQLQQWGAGLLKPSETLSLTCAVYGGSFSGYYWSWIRQPPGKGLEWIGEINHSGSTNYNPSLKSRVTISVDTSKNQFSLKLSSVTAADTAVYYCARGRDGYDFDPWGQGTLVTVSS
VL: QSVLTQPPSASGSPGQSVTISCTGTSSDVGGYNYVSWYQQHPGKAPKLMIYEVSKRPSGVPDRFSGSKSGNTASLTVSGLQAEDEADYYCSSYAGSNNLVVFGGGTQLTVL
B8: A2 (antibody, V domains shown)
VH: QVQLQESGPGLVKPSGTLSLTCAVSGGSISRSNWWSWVRQPPGKGLEWIGEVYHSGSTNYNPSLKSRVTISVDKSKNQFSLKVNSVTAADTAVYYCARDSDGGYYFDYWGQGTLVTVSS
VL: B1 VL with N33K, M49L, S54T, T62N, K68Q, A82T, R94T, S95D, S96N, S97G
B9: El-A18 (E1 derived anti-c-Met antibody) (antibody, V domains shown)
VH: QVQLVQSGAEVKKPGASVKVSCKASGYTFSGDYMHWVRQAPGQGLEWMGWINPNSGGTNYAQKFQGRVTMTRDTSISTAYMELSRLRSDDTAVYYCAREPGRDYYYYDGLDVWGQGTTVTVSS
VL: B2 VL with T23I, S26A, Y33H, V45A, D94S
B10: El-BR1 (E1 derived anti-c-Met antibody) (antibody, V domains shown)
VH: B2 VH with T24A, Y27S, M34L, G101A, M110L
VL: B2 VL with T23L, S26A, V45A, D94S, Y100V, V101L
B11: El-B11 (E1 derived anti-c-Met antibody) (antibody, V domains shown)
VH: B2 VH with T24A, M34I, G101A, M110L
VL: B2 VL with T23I, V45A, P57I, D94S, Y100V, V101L
B12: El-A11 (E1 derived anti-c-Met antibody) (antibody, V domains shown)
VH: B2 VH with T24A, Y27F, M34I, G101A, M110L
VL: B2 VL with T23L, Y33H, V45A, P57I, D94S, V101L
B13: El-B19 (E1 derived anti-c-Met antibody) (antibody, V domains shown)
VH: B2 VH with T24A, Y27F, M34I, M110L
VL: B2 VL with T23L, S26A, Y33H, V45A, D94S, Y100V, V101L
B14: El-A14 (E1 derived anti-c-Met antibody) (antibody, V domains shown)
VH: B2 VH with T24A, M34I, G101A, M110L
VL: B2 VL with T23I, Y33H, V45A, D94S
B15: El-A10 (E1 derived anti-c-Met antibody) (antibody, V domains shown)
VH: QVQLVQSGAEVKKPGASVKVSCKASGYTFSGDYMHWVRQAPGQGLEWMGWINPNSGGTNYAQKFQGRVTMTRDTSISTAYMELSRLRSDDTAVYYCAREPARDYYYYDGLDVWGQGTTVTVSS
VL: B2 VL with T23L, S26A, Y33H, V45A, D94S
B16: A1-4 anti-c-Met antibody (antibody, V domains shown)
VH: B1 VH with I53S, N54S, D105Y, P108A
VL: B1 VL with N33P, D52V, K107Q
B17: A1-32 anti-c-Met antibody (antibody, V domains shown)
VH: B1 VH with I53S, N54T, K66D, D105Y, F106L, P108Q
VL: B1 VL with S27F, N33P, Y93F, S97A
B18: A1-2 anti-c-Met antibody (antibody, V domains shown)
VH: B1 VH with I53S, N54T, P108A
VL: B1 VL with S27F, Y93F
B19: A1-6 anti-c-Met antibody (antibody, V domains shown)
VH: B1 VH with N54T, F106I, P108A
VL: B1 VL with S27W, N33P, S96V
B20: A1-9 anti-c-Met antibody (antibody, V domains shown)
VH: B1 VH with N54S, D105Y, F106L, P108Q
VL: B1 VL with D52N, Y93F
B21: A1-8 (antibody, V domains shown)
VH: B1 VH with N54S, K66E, F106L, P108R
VL: B1 VL with N33P, D52R, S97A
B22: A1-24 anti-c-Met antibody (antibody, V domains shown)
VH: B1 VH with I53S, N54T, K66E, G103S, P108A
VL: B1 VL with S27F, Y93F, S97A

Biological target: T1, recombinant c-Met extracellular domain …
Experiment: Biacore SPR

Kd [nM] | Binder
1.98 | B1
18.6 | B2

Biological target: T1, recombinant c-Met extracellular domain …
Experiment: Biacore SPR
Remark: another data set of the same source

Ka [M⁻¹] | Binder
5.3e+08 | B1
5.37e+07 | B2

Biological target: T1, recombinant c-Met extracellular domain …
Experiment: Octet Red (BLI)

Kd [nM] | Binder
0.7 | B3
0.15 | B4

Biological target: T1, recombinant c-Met extracellular domain …
Experiment: Octet Red (BLI)
Remark: another data set of the same source

Kd [nM] | Binder
1.5 | B5
0.8 | B1

Biological target: T1, recombinant c-Met extracellular domain …
Experiment: Octet Red (BLI)
Remark: another data set of the same source

Kd [nM] | Binder
0.8 | B6
4.5 | B2

Biological target: T1, recombinant c-Met extracellular domain …
Experiment: Octet Red (BLI)
Remark: another data set of the same source

Kd [nM] | Binder
1.9 | B7
2.2 | B8

Biological target: T1, recombinant c-Met extracellular domain …
Experiment: ELISA, blocking of HGF binding to c-Met

IC50 [nM] | Binder
3.18 | B2
2.69 | B9
3.11 | B10
2.98 | B11
2.26 | B12
2.63 | B13
2.31 | B14
2.61 | B15

Biological target: T1, recombinant c-Met extracellular domain …
Experiment: ELISA, blocking of HGF binding to c-Met
Remark: another data set of the same source

IC50 [nM] | Binder
1.44 | B16
0.91 | B17
1.73 | B1
1.22 | B18
1.34 | B19
1.72 | B20
1.14 | B21
1.52 | B22
